Source: PMC5658516

target: OTULIN-diUb adduct (endogenous OTULIN coupled to bio-Ub_(G76Dha)-Ub) (human (endogenous in HEK293 and Jurkat T cells) | not stated) (UniProt Q96BN8); test: pull-down; biotin-PD of the OTULIN-diUb adduct formed in extracts of transfected HEK293 cells or of Jurkat T cells (with or without TNF-α, 20 ng/mL) on streptavidin agarose, three washes with co-IP buffer; western blot of eluate, input and supernatant

Percent of the protein removed from the extract by the biotin-PD, 25%:
endogenous HOIP (from UniProt Q96EP0 1-1072) (natural protein)
endogenous SHARPIN (from UniProt Q9H0F6 1-387) (natural protein)
endogenous HOIL-1 (from UniProt Q9BYM8 1-510) (natural protein)
